The source of these data is publication PMC10786891, “Massively parallel profiling of RNA-targeting CRISPR-Cas13d”.

A word on the Kd: it is the concentration at which binding is half-saturated.

T1: EsCas13d, nuclease-dead (Eubacterium siraeum, UniProt B0MS50, R295A;H300A;R849A;H854A)
T1 sequence: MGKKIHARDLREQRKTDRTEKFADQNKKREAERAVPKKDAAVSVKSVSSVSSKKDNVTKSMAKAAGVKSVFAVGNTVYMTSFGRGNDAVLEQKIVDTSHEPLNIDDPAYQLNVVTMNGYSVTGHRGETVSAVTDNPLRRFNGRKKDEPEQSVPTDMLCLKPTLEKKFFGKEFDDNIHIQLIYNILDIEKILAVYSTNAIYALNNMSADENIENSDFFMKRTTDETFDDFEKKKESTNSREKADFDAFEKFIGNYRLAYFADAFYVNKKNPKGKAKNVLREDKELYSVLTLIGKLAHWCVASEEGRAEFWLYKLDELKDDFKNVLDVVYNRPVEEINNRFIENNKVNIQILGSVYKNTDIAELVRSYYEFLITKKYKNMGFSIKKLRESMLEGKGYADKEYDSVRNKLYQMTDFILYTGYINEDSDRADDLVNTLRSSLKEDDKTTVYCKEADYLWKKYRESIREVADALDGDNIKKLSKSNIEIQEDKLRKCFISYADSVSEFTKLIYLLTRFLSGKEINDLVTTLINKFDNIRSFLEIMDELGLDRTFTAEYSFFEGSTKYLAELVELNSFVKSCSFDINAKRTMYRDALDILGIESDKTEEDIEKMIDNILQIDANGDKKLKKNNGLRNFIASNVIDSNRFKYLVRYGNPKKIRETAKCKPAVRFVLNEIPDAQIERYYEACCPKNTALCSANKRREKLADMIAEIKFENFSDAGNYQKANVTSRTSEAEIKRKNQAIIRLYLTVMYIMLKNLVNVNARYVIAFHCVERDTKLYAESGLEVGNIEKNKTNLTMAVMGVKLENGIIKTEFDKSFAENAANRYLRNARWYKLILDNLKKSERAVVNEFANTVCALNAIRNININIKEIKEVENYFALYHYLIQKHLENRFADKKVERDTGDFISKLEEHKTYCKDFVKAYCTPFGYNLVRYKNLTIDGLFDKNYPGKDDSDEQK

B1: target 1 insG 3' of 10,insC 3' of 3 (mixed)
RNA 1: CACCCGUGCAAAAAUGCAGGGGUCUAAAACUGAGCGGAUAACCUCUCUAUGG
RNA 2: GGGAAUGGAUCCACAUCUACGAAUUCGUACCAUAGAGAGGUUGAUCCGCUCCACCGAGAUCGGAAGAGCACACGU
B2: target 1 C2G,U10A (mixed)
RNA 1: CACCCGUGCAAAAAUGCAGGGGUCUAAAACUGAGCGGAUAACCUCUCUAUGG
RNA 2: GGGAAUGGAUCCACAUCUACGAAUUCGUACCAUAGAGAGGUAAUCCGCUGACCGAGAUCGGAAGAGCACACGU
B3: target 1 G12U,A16U (mixed)
RNA 1: CACCCGUGCAAAAAUGCAGGGGUCUAAAACUGAGCGGAUAACCUCUCUAUGG
RNA 2: GGGAAUGGAUCCACAUCUACGAAUUCGUACCAUAGUGAGUUUAUCCGCUCACCGAGAUCGGAAGAGCACACGU
B4: target 1 del13,del16 (mixed)
RNA 1: CACCCGUGCAAAAAUGCAGGGGUCUAAAACUGAGCGGAUAACCUCUCUAUGG
RNA 2: GGGAAUGGAUCCACAUCUACGAAUUCGUACCAUAGGAGUUAUCCGCUCACCGAGAUCGGAAGAGCACACGU
B5: target 1 insC 3' of 13,insG 3' of 8 (mixed)
RNA 1: CACCCGUGCAAAAAUGCAGGGGUCUAAAACUGAGCGGAUAACCUCUCUAUGG
RNA 2: GGGAAUGGAUCCACAUCUACGAAUUCGUACCAUAGAGAGCGUUAUGCCGCUCACCGAGAUCGGAAGAGCACACGU
B6: target 1 U8G,U19G (mixed)
RNA 1: CACCCGUGCAAAAAUGCAGGGGUCUAAAACUGAGCGGAUAACCUCUCUAUGG
RNA 2: GGGAAUGGAUCCACAUCUACGAAUUCGUACCAGAGAGAGGUUAGCCGCUCACCGAGAUCGGAAGAGCACACGU
B7: target 1 insA 3' of 10,insU 3' of 4 (mixed)
RNA 1: CACCCGUGCAAAAAUGCAGGGGUCUAAAACUGAGCGGAUAACCUCUCUAUGG
RNA 2: GGGAAUGGAUCCACAUCUACGAAUUCGUACCAUAGAGAGGUUAAUCCGCUUCACCGAGAUCGGAAGAGCACACGU
B8: target 1 insU 3' of 15,insA 3' of 5 (mixed)
RNA 1: CACCCGUGCAAAAAUGCAGGGGUCUAAAACUGAGCGGAUAACCUCUCUAUGG
RNA 2: GGGAAUGGAUCCACAUCUACGAAUUCGUACCAUAGAGUAGGUUAUCCGACUCACCGAGAUCGGAAGAGCACACGU
B9: target 1 C7A,C22A (mixed)
RNA 1: CACCCGUGCAAAAAUGCAGGGGUCUAAAACUGAGCGGAUAACCUCUCUAUGG
RNA 2: GGGAAUGGAUCCACAUCUACGAAUUCGUAACAUAGAGAGGUUAUACGCUCACCGAGAUCGGAAGAGCACACGU
B10: target 1 insA 3' of 21,insG 3' of 10 (mixed)
RNA 1: CACCCGUGCAAAAAUGCAGGGGUCUAAAACUGAGCGGAUAACCUCUCUAUGG
RNA 2: GGGAAUGGAUCCACAUCUACGAAUUCGUACCAAUAGAGAGGUUGAUCCGCUCACCGAGAUCGGAAGAGCACACGU
B11: target 1 U8A,G17A (mixed)
RNA 1: CACCCGUGCAAAAAUGCAGGGGUCUAAAACUGAGCGGAUAACCUCUCUAUGG
RNA 2: GGGAAUGGAUCCACAUCUACGAAUUCGUACCAUAAAGAGGUUAACCGCUCACCGAGAUCGGAAGAGCACACGU
B12: target 1 C6G,U11A (mixed)
RNA 1: CACCCGUGCAAAAAUGCAGGGGUCUAAAACUGAGCGGAUAACCUCUCUAUGG
RNA 2: GGGAAUGGAUCCACAUCUACGAAUUCGUACCAUAGAGAGGAUAUCGGCUCACCGAGAUCGGAAGAGCACACGU
B13: target 1 U3G,U11A (mixed)
RNA 1: CACCCGUGCAAAAAUGCAGGGGUCUAAAACUGAGCGGAUAACCUCUCUAUGG
RNA 2: GGGAAUGGAUCCACAUCUACGAAUUCGUACCAUAGAGAGGAUAUCCGCGCACCGAGAUCGGAAGAGCACACGU
B14: target 1 insG 3' of 19,insG 3' of 8 (mixed)
RNA 1: CACCCGUGCAAAAAUGCAGGGGUCUAAAACUGAGCGGAUAACCUCUCUAUGG
RNA 2: GGGAAUGGAUCCACAUCUACGAAUUCGUACCAUGAGAGAGGUUAUGCCGCUCACCGAGAUCGGAAGAGCACACGU
B15: target 1 insG 3' of 21,insG 3' of 2 (mixed)
RNA 1: CACCCGUGCAAAAAUGCAGGGGUCUAAAACUGAGCGGAUAACCUCUCUAUGG
RNA 2: GGGAAUGGAUCCACAUCUACGAAUUCGUACCGAUAGAGAGGUUAUCCGCUCGACCGAGAUCGGAAGAGCACACGU
B16: target 1 del7,del20 (mixed)
RNA 1: CACCCGUGCAAAAAUGCAGGGGUCUAAAACUGAGCGGAUAACCUCUCUAUGG
RNA 2: GGGAAUGGAUCCACAUCUACGAAUUCGUACCUAGAGAGGUUAUCGCUCACCGAGAUCGGAAGAGCACACGU
B17: target 1 insU 3' of 22,insG 3' of 19 (mixed)
RNA 1: CACCCGUGCAAAAAUGCAGGGGUCUAAAACUGAGCGGAUAACCUCUCUAUGG
RNA 2: GGGAAUGGAUCCACAUCUACGAAUUCGUACUCAUGAGAGAGGUUAUCCGCUCACCGAGAUCGGAAGAGCACACGU
B18: target 1 insU 3' of 4,insG 3' of 4 (mixed)
RNA 1: CACCCGUGCAAAAAUGCAGGGGUCUAAAACUGAGCGGAUAACCUCUCUAUGG
RNA 2: GGGAAUGGAUCCACAUCUACGAAUUCGUACCAUAGAGAGGUUAUCCGCUGUCACCGAGAUCGGAAGAGCACACGU
B19: target 1 insU 3' of 22,insC 3' of 13 (mixed)
RNA 1: CACCCGUGCAAAAAUGCAGGGGUCUAAAACUGAGCGGAUAACCUCUCUAUGG
RNA 2: GGGAAUGGAUCCACAUCUACGAAUUCGUACUCAUAGAGAGCGUUAUCCGCUCACCGAGAUCGGAAGAGCACACGU
B20: target 1 del8,del15 (mixed)
RNA 1: CACCCGUGCAAAAAUGCAGGGGUCUAAAACUGAGCGGAUAACCUCUCUAUGG
RNA 2: GGGAAUGGAUCCACAUCUACGAAUUCGUACCAUAGAAGGUUACCGCUCACCGAGAUCGGAAGAGCACACGU
B21: target 1 insU 3' of 22,insU 3' of 2 (mixed)
RNA 1: CACCCGUGCAAAAAUGCAGGGGUCUAAAACUGAGCGGAUAACCUCUCUAUGG
RNA 2: GGGAAUGGAUCCACAUCUACGAAUUCGUACUCAUAGAGAGGUUAUCCGCUCUACCGAGAUCGGAAGAGCACACGU
B22: target 1 U3G,C21U (mixed)
RNA 1: CACCCGUGCAAAAAUGCAGGGGUCUAAAACUGAGCGGAUAACCUCUCUAUGG
RNA 2: GGGAAUGGAUCCACAUCUACGAAUUCGUACUAUAGAGAGGUUAUCCGCGCACCGAGAUCGGAAGAGCACACGU
B23: target 1 insA 3' of 11,insC 3' of 10 (mixed)
RNA 1: CACCCGUGCAAAAAUGCAGGGGUCUAAAACUGAGCGGAUAACCUCUCUAUGG
RNA 2: GGGAAUGGAUCCACAUCUACGAAUUCGUACCAUAGAGAGGUAUCAUCCGCUCACCGAGAUCGGAAGAGCACACGU
B24: target 1 insC 3' of 10,insU 3' of 7 (mixed)
RNA 1: CACCCGUGCAAAAAUGCAGGGGUCUAAAACUGAGCGGAUAACCUCUCUAUGG
RNA 2: GGGAAUGGAUCCACAUCUACGAAUUCGUACCAUAGAGAGGUUCAUCUCGCUCACCGAGAUCGGAAGAGCACACGU
B25: target 1 insA 3' of 19,insG 3' of 14 (mixed)
RNA 1: CACCCGUGCAAAAAUGCAGGGGUCUAAAACUGAGCGGAUAACCUCUCUAUGG
RNA 2: GGGAAUGGAUCCACAUCUACGAAUUCGUACCAUAAGAGAGGGUUAUCCGCUCACCGAGAUCGGAAGAGCACACGU
B26: target 1 insG 3' of 22,insG 3' of 14 (mixed)
RNA 1: CACCCGUGCAAAAAUGCAGGGGUCUAAAACUGAGCGGAUAACCUCUCUAUGG
RNA 2: GGGAAUGGAUCCACAUCUACGAAUUCGUACGCAUAGAGAGGGUUAUCCGCUCACCGAGAUCGGAAGAGCACACGU
B27: target 1 A9U,A20C (mixed)
RNA 1: CACCCGUGCAAAAAUGCAGGGGUCUAAAACUGAGCGGAUAACCUCUCUAUGG
RNA 2: GGGAAUGGAUCCACAUCUACGAAUUCGUACCCUAGAGAGGUUUUCCGCUCACCGAGAUCGGAAGAGCACACGU

This data set concerns the target T1, EsCas13d, nuclease-dead. Nature of the data set: crRNA (strand 1, pre-loaded); Mg2+; 40 mM Tris-HCl pH 7.5, 150 mM NaCl, 6 mM MgCl2, 1 mM DTT, 0.1% Tween-20, 0.2 mg/ml BSA; 25 C; 10 min per concentration, then washed. Particulars: tags: His6-TwinStrep-SUMO cleaved; N-terminal SNAP kept (SNAP-Surface 488); label: 3' end held by stalled T7 RNA polymerase.
For the molecule B1, binding was characterised by a dissociation constant (Kd) of 26.7 ± 1.9 nM.

As to B2, binding was put at a Kd of 12.7 ± 1.3 nM. In the case of B3, binding was put at a Kd of 79 ± 18 nM.

B4 showed a Kd of 94 ± 28 nM. The value for B5 was 13.9 ± 1.5 nM. The molecule B6 returned a Kd of 79 ± 15 nM. The value for B7 was 9.3 ± 0.6 nM.

Regarding B8, the Kd is 21.7 ± 2.1 nM. The value for B9 was 12.1 ± 0.5 nM. For B10, the Kd came out at 59 ± 24 nM.

B11: the dissociation constant (Kd) came out at 92 ± 17 nM. The result for B12 reads 25.4 ± 0.9 nM; that for B13, 14.2 ± 1.3 nM. As to B14, the Kd came to 58 ± 6 nM. B15 showed a Kd of 61 ± 13 nM.

For the molecule B16, binding was put at a Kd of 39 ± 4 nM.

Regarding B17, the Kd was found to be 86 ± 19 nM.

Regarding B18, the Kd came to 8.9 ± 0.8 nM. The result for B19 reads 88 ± 32 nM; that for B20, 37.8 ± 3 nM; that for B21, 35.9 ± 2.9 nM. In turn, B22 had a Kd of 11 ± 1.2 nM. Turning to B23, the Kd was found to be 14.6 ± 0.7 nM. In the case of B24, the Kd was determined as 19.2 ± 1.3 nM. In turn, B25 returned a Kd of 28.6 ± 1.5 nM. As for B26, the Kd was determined as 28.6 ± 3.5 nM. On to B27, for which the Kd was about 53 nM.
